Data: article PMC12455585

Experiments:
Assay in all cases: fluorescence anisotropy
Details in all cases: 50 mM HEPES-NaOH pH 7.2, 50 mM NaCl (50-250 mM in salt series), 20 or 50 nM DNA, 60 min, 25 C
[1] = system: OBMg (ComEC OB fold) WT (Moorella glycerini)
[2] = system: OBMg K192A (Moorella glycerini)
[3] = system: OBMg R112A (Moorella glycerini)
[4] = system: OBMg R115A (Moorella glycerini)
[5] = system: OBMg R122A (Moorella glycerini)
[6] = system: OBMg R150A (Moorella glycerini)
[7] = system: OBMg R175A (Moorella glycerini)
[8] = system: OBMg R188A (Moorella glycerini)

| Sequence | Kd [1] [nM] | binding signal (fold Kd increase vs WT) [2] | binding signal (fold Kd increase vs WT) [3] | binding signal (fold Kd increase vs WT) [4] | binding signal (fold Kd increase vs WT) [5] | binding signal (fold Kd increase vs WT) [6] | binding signal (fold Kd increase vs WT) [7] | binding signal (fold Kd increase vs WT) [8] |
| --- | --- | --- | --- | --- | --- | --- | --- | --- |
| GTTCGCAACGAA (double strand) [12 bp dsDNA] | 330 | > 2 | > 2 | > 2 | > 2 | > 2 | > 2 | > 2 |
| GTTCGCAACGAA [12-mer ssDNA] | 790 | – | – | – | – | – | – | – |
